Data as given in US20120316071A1 (published 2012).

Tests used:
[1] = molecular target: T1, Recombinant Human DLL4 (delta-like protein 4) (human, UniProt Q9NR61 27-524); assay: ELISA on plate-coated DLL4, absorbance at 450 nm, signal minus noise
T1 construct: Bought recombinant protein (R&D Systems Cat#1506-D4/CF); also called rHuman DLL4; Delta-like 4

[2] = molecular target: T1, Recombinant Human DLL4 (delta-like …); assay: ECL (MSD) multispot binding assay, immobilized DLL4, 10 nM Fab, signal over blank
[3] = molecular target: T2, Recombinant Human DLL4 (R&D Systems Cat#1506-D4/CF) (human, UniProt Q9NR61 27-529); assay: 96-well plate ECL (MSD) assay, DLL4 coated on plate, Fab at 0.04 µM; ECL signal on DLL4 over signal on blank well
T2 construct: Bought recombinant protein; also called rHuman DLL4; delta-like protein 4

ELISA (Signal-Noise) [1]	Signal/Blank [10 nM Fab] [2]	Signal/Noise [3]	Binder
		3.5	Fab VH1-46_IGHD6-6*01_IGHJ1*01 S103A & L6_IGKJ1*01 (Fab, V domains shown, Heavy chain CDR3 alanine mutant of the parental Fab; Fab format as the parent (CH1 with His6/Flag tags, kappa CL)) VH: QVQLVQSGAEVKKPGASVKVSCKASGYTFTSYYMHWVRQAPGQGLEWMGIINPSGGSTSYAQKFQGRVTMTRDTSTSTVYMELSSLRSEDTAVYYCAREEYSASSAEYFQHWGQGTLVTVSS VL: not shown
		1.3	Fab VH1-46_IGHD6-6*01_IGHJ1*01 S104A & L6_IGKJ1*01 (Fab, V domains shown, Heavy chain CDR3 alanine mutant of the parental Fab; Fab format as the parent (CH1 with His6/Flag tags, kappa CL)) VH: QVQLVQSGAEVKKPGASVKVSCKASGYTFTSYYMHWVRQAPGQGLEWMGIINPSGGSTSYAQKFQGRVTMTRDTSTSTVYMELSSLRSEDTAVYYCAREEYSSASAEYFQHWGQGTLVTVSS VL: not shown
0.4	1080		Fab VH1-46_IGHD6-6*01_IGHJ1*01 S102A/S103P/S104F/H111F S84T & L6_IGKJ1*01 (Fab, V domains shown, Tested as Fab expressed in E. coli; also called APFF S84T) VH: QVQLVQSGAEVKKPGASVKVSCKASGYTFTSYYMHWVRQAPGQGLEWMGIINPSGGSTSYAQKFQGRVTMTRDTSTSTVYMELTSLRSEDTAVYYCAREEYAPFSAEYFQFWGQGTLVTVSS VL: not shown
0.26	433		Fab VH1-46_IGHD6-6*01_IGHJ1*01 S102A/S103P/S104F/H111F S84R & L6_IGKJ1*01 (Fab, V domains shown, Tested as Fab expressed in E. coli; also called APFF S84R) VH: QVQLVQSGAEVKKPGASVKVSCKASGYTFTSYYMHWVRQAPGQGLEWMGIINPSGGSTSYAQKFQGRVTMTRDTSTSTVYMELRSLRSEDTAVYYCAREEYAPFSAEYFQFWGQGTLVTVSS VL: not shown
		0.8	Fab VH1-46_IGHD6-6*01_IGHJ1*01 S105A & L6_IGKJ1*01 (Fab, V domains shown, Heavy chain CDR3 alanine mutant of the parental Fab; Fab format as the parent (CH1 with His6/Flag tags, kappa CL)) VH: QVQLVQSGAEVKKPGASVKVSCKASGYTFTSYYMHWVRQAPGQGLEWMGIINPSGGSTSYAQKFQGRVTMTRDTSTSTVYMELSSLRSEDTAVYYCAREEYSSSAAEYFQHWGQGTLVTVSS VL: not shown

More lines, now with the values behind:

Binder	ELISA (Signal-Noise) [1]	Signal/Blank [10 nM Fab] [2]	Signal/Noise [3]
Fab VH1-46_IGHD6-6*01_IGHJ1*01 S102A/S103P/S104F/H111F S84K & L6_IGKJ1*01 (Fab, V domains shown, Tested as Fab expressed in E. coli; also called APFF S84K) VH: QVQLVQSGAEVKKPGASVKVSCKASGYTFTSYYMHWVRQAPGQGLEWMGIINPSGGSTSYAQKFQGRVTMTRDTSTSTVYMELKSLRSEDTAVYYCAREEYAPFSAEYFQFWGQGTLVTVSS VL: not shown	0.29	448	
Fab VH1-46_IGHD6-6*01_IGHJ1*01 S102A/S103P/S104F/H111F S84N & L6_IGKJ1*01 (Fab, V domains shown, Tested as Fab expressed in E. coli; also called APFF S84N) VH: QVQLVQSGAEVKKPGASVKVSCKASGYTFTSYYMHWVRQAPGQGLEWMGIINPSGGSTSYAQKFQGRVTMTRDTSTSTVYMELNSLRSEDTAVYYCAREEYAPFSAEYFQFWGQGTLVTVSS VL: not shown	0.47	497	
Fab VH1-46_IGHD6-6*01_IGHJ1*01 S102A/S103P/S104F/H111F S84H & L6_IGKJ1*01 (Fab, V domains shown, Tested as Fab expressed in E. coli; also called APFF S84H) VH: QVQLVQSGAEVKKPGASVKVSCKASGYTFTSYYMHWVRQAPGQGLEWMGIINPSGGSTSYAQKFQGRVTMTRDTSTSTVYMELHSLRSEDTAVYYCAREEYAPFSAEYFQFWGQGTLVTVSS VL: not shown	0.41	457	
Fab VH1-46_IGHD6-6*01_IGHJ1*01 S102A/S103P/S104F/H111F S84Q & L6_IGKJ1*01 (Fab, V domains shown, Tested as Fab expressed in E. coli; also called APFF S84Q) VH: QVQLVQSGAEVKKPGASVKVSCKASGYTFTSYYMHWVRQAPGQGLEWMGIINPSGGSTSYAQKFQGRVTMTRDTSTSTVYMELQSLRSEDTAVYYCAREEYAPFSAEYFQFWGQGTLVTVSS VL: not shown	0.39	413	
